Consider 7 molecules from patent US20220411483A1 (Chugai, published 2022).

A word on the Kd: it is the free concentration of one partner at which half of the binding sites on the other are occupied at equilibrium, for simple one-to-one binding.

The target in experiment [1] is T1, human FcγRIa extracellular domain with C-terminal His tag (human, UniProt P12314 16-292).
T1 construct: Whole entry named; also called FcgRIa
As to the kind of experiment: SPR, antibody captured, FcgR analyte. (SPR reads the build-up and loss of mass on a sensor chip optically.)

The target of experiment [2] is T2, human FcγRIIa R type extracellular domain with C-terminal His tag (human, UniProt P12318 34-217).
T2 construct: extracellular domain; also called FcgRIIaR
T2 sequence (looked up): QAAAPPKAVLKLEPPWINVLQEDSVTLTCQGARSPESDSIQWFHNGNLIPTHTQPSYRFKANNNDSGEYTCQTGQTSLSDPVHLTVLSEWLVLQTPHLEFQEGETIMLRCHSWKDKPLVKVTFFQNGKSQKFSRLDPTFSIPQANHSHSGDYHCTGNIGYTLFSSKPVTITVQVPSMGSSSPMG
As to the kind of experiment: SPR, antibody captured, FcgR analyte.

Experiment [3] addresses T3, human FcγRIIb extracellular domain with C-terminal His tag (human, UniProt P31994 43-217).
T3 construct: extracellular domain; also called FcgRIIb
T3 sequence (looked up): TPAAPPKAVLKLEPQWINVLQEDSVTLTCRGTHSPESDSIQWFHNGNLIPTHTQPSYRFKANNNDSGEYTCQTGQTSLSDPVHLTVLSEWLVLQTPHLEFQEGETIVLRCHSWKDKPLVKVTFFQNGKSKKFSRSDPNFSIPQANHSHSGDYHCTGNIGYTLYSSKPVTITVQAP
Nature of the experiment: SPR, antibody captured, FcgR analyte.

For experiment [4], the target named is T1, human FcγRIa extracellular domain with …. Nature of the experiment: SPR, KD of IL6R-G1d/IL6R-L divided by KD of variant.
The target in experiment [5] is T2, human FcγRIIa R type extracellular …. The description is as above.
The target of experiment [6] is T4, human FcγRIIa H type extracellular domain with C-terminal His tag (human, UniProt P12318 34-217).
T4 construct: extracellular domain; also called FcgRIIaH
T4 sequence (looked up): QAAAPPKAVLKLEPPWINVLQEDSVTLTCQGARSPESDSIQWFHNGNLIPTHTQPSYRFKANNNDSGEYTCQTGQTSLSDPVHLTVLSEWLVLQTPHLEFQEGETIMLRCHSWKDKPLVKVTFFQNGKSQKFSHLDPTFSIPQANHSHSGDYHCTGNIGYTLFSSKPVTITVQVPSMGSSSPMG
The experiment is described as above.

Experiment [7] has as its target T3, human FcγRIIb extracellular domain with …. Described as above.
In experiment [8] the target is T5, human FcγRIIIa V type extracellular domain with C-terminal His tag (human, UniProt P08637 17-208).
T5 construct: extracellular domain; also called FcgRIIIaV
T5 sequence (P08637 17-208 F176V): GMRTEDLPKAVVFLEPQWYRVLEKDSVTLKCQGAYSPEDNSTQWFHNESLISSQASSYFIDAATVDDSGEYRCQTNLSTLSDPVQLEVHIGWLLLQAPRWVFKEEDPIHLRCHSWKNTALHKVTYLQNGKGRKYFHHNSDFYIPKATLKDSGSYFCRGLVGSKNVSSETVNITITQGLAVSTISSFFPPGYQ
The experiment is described as above.

T1 sequence (P12314 16-292): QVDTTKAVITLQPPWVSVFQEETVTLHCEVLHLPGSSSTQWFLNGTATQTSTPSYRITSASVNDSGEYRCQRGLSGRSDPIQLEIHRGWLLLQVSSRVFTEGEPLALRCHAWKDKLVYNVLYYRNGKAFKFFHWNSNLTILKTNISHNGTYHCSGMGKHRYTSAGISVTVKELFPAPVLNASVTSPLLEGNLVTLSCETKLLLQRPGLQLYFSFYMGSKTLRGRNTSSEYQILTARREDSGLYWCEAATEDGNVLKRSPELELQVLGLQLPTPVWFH

B1: IL6R-P750/IL6R-L (antibody, human IgG1, kappa)
heavy: QVQLQESGPGLVKPSETLSLTCAVSGHSISHDHAWSWVRQPPGEGLEWIGFISYSGITNYNPSLQGRVTISRDNSKNTLYLQMNSLRAEDTAVYYCARSLARTTAMDYWGEGTLVTVSSASTKGPSVFPLAPSSKSTSGGTAALGCLVKDYFPEPVTVSWNSGALTSGVHTFPAVLQSSGLYSLSSVVTVPSSSLGTQTYICNVNHKPSNTKVDKKVEPKSCDKTHTCPPCPAPELFGQDSVMLFPPKPKDTLMISRTPEVTCVVVDVSPEDPEVKFNWYVDGVEVHNAKTKPREEQENSTYRVVSVLTVLHQDWLNGKEYKCAVSNKALPAPIEKTISKAKGQPREPQVYTLPPSRDELTKNQVSLTCLVKGFYPSDIAVEWESNGQPENNYKTTPPVLDSDGSFFLYSKLTVDKSRWQQGNVFSCSVMHEALHNHYTQKSLSLSP
light: not shown
Turning to B1, the equilibrium dissociation constant (Kd) in experiment [1] is 0.23 µM; in experiment [2], 49 µM; in experiment [3], 4 µM. In experiment [4], the “Relative FcgRIa-binding Activity” value is 0.001. Further, the “Relative FcgRIIaR-binding Activity” value in experiment [5] worked out at 0.02. In addition, the “Relative FcgRIIaH-binding Activity” value in experiment [6] was 0.013. The “Relative FcgRIIb-binding Activity” value in experiment [7] was 0.5. Further, in experiment [8], the “Relative FcgRIIIaV-binding Activity” value amounted to 0.006.

B2: IL6R-P751/IL6R-L (antibody, human IgG1, kappa)
heavy: QVQLQESGPGLVKPSETLSLTCAVSGHSISHDHAWSWVRQPPGEGLEWIGFISYSGITNYNPSLQGRVTISRDNSKNTLYLQMNSLRAEDTAVYYCARSLARTTAMDYWGEGTLVTVSSASTKGPSVFPLAPSSKSTSGGTAALGCLVKDYFPEPVTVSWNSGALTSGVHTFPAVLQSSGLYSLSSVVTVPSSSLGTQTYICNVNHKPSNTKVDKKVEPKSCDKTHTCPPCPAPELFGQDSVMLFPPKPKDTLMISRTPEVTCVVVDVSPEDPEVKFNWYVDGVEVHNAKTKPREEQENSTYRVVSVLTVLHQDWLNGKEYKCEVSNKALPAPIEKTISKAKGQPREPQVYTLPPSRDELTKNQVSLTCLVKGFYPSDIAVEWESNGQPENNYKTTPPVLDSDGSFFLYSKLTVDKSRWQQGNVFSCSVMHEALHNHYTQKSLSLSP
light: not shown
As for B2, the figures for the equilibrium dissociation constant (Kd) in experiment [1], in experiment [2] and in experiment [3] were 0.24 µM, 19 µM and 3.5 µM, respectively. Also, the “Relative FcgRIa-binding Activity” value in experiment [4] was 0.001. Moreover, the “Relative FcgRIIaR-binding Activity” value in experiment [5] was 0.06. For the same molecule, the “Relative FcgRIIaH-binding Activity” value in experiment [6] stood at 0.013. Also, in experiment [7], the “Relative FcgRIIb-binding Activity” value came to 0.6. Also, in experiment [8], the “Relative FcgRIIIaV-binding Activity” value turned out to be 0.007.

B3: IL6R-P755/IL6R-L (antibody, human IgG1, kappa)
heavy: QVQLQESGPGLVKPSETLSLTCAVSGHSISHDHAWSWVRQPPGEGLEWIGFISYSGITNYNPSLQGRVTISRDNSKNTLYLQMNSLRAEDTAVYYCARSLARTTAMDYWGEGTLVTVSSASTKGPSVFPLAPSSKSTSGGTAALGCLVKDYFPEPVTVSWNSGALTSGVHTFPAVLQSSGLYSLSSVVTVPSSSLGTQTYICNVNHKPSNTKVDKKVEPKSCDKTHTCPPCPAPELLGQDSVMLFPPKPKDTLMISRTPEVTCVVVDVSPEDPEVKFNWYVDGVEVHNAKTKPREEQENSTYRVVSVLTVLHQDWLNGKEYKCEVHNKALPHPIEKTISKAKGQPREPQVYTLPPSRDELTKNQVSLTCLVKGFYPSDIAVEWESNGQPENNYKTTPPVLDSDGSFFLYSKLTVDKSRWQQGNVFSCSVMHEALHNHYTQKSLSLSP
light: not shown
As to B3, the equilibrium dissociation constant (Kd) came out at 0.085 µM in experiment [1], 17 µM in experiment [2] and 4.1 µM in experiment [3]. Moreover, the “Relative FcgRIa-binding Activity” value in experiment [4] is 0.004. In experiment [5], the “Relative FcgRIIaR-binding Activity” value came out at 0.06. Moreover, the “Relative FcgRIIaH-binding Activity” value in experiment [6] came to 0.005. The “Relative FcgRIIb-binding Activity” value in experiment [7] worked out at 0.5. For the same molecule, the “Relative FcgRIIIaV-binding Activity” value in experiment [8] was determined as 0.005.

B4: IL6R-P756/IL6R-L (antibody, human IgG1, kappa)
heavy: QVQLQESGPGLVKPSETLSLTCAVSGHSISHDHAWSWVRQPPGEGLEWIGFISYSGITNYNPSLQGRVTISRDNSKNTLYLQMNSLRAEDTAVYYCARSLARTTAMDYWGEGTLVTVSSASTKGPSVFPLAPSSKSTSGGTAALGCLVKDYFPEPVTVSWNSGALTSGVHTFPAVLQSSGLYSLSSVVTVPSSSLGTQTYICNVNHKPSNTKVDKKVEPKSCDKTHTCPPCPAPDLLGGDSVFLFPPKPKDTLMISRTPEVTCVVIDVAEEDGEVKFNWYVDGVEVHNAKTKPREEQYNSTYRVVSVLTVLHQDWLNGKEYKCKVSNKGLPSSIEKTISKAKGQPREPQVYTLPPSRDELTKNQVSLTCLVKGFYPSDIAVEWESNGQPENNYKTTPPVLDSDGSFFLYSKLTVDKSRWQQGNVFSCSVMHEALHNHYTQKSLSLSP
light: not shown
Take B4: the Kd in experiment [1] amounted to 0.0011 µM; in experiment [2] it was 1.7 µM; in experiment [3], 0.052 µM. Further, the “Relative FcgRIa-binding Activity” value in experiment [4] worked out at 0.291. Further, in experiment [5], the “Relative FcgRIIaR-binding Activity” value was found to be 0.65. The “Relative FcgRIIaH-binding Activity” value in experiment [6] came to 0.03. Further, the “Relative FcgRIIb-binding Activity” value in experiment [7] came out at 40.4. The “Relative FcgRIIIaV-binding Activity” value in experiment [8] came out at 0.007.

B5: IL6R-P754/IL6R-L (antibody, human IgG1, kappa)
heavy: QVQLQESGPGLVKPSETLSLTCAVSGHSISHDHAWSWVRQPPGEGLEWIGFISYSGITNYNPSLQGRVTISRDNSKNTLYLQMNSLRAEDTAVYYCARSLARTTAMDYWGEGTLVTVSSASTKGPSVFPLAPSSKSTSGGTAALGCLVKDYFPEPVTVSWNSGALTSGVHTFPAVLQSSGLYSLSSVVTVPSSSLGTQTYICNVNHKPSNTKVDKKVEPKSCDKTHTCPPCPAPELLGQDSVMLFPPKPKDTLMISRTPEVTCVVVDVSPEDPEVKFNWYVDGVEVHNAKTKPREEQENSTYRVVSVLTVLHQDWLNGKEYKCAVHNKALPHPIEKTISKAKGQPREPQVYTLPPSRDELTKNQVSLTCLVKGFYPSDIAVEWESNGQPENNYKTTPPVLDSDGSFFLYSKLTVDKSRWQQGNVFSCSVMHEALHNHYTQKSLSLSP
light: not shown
Consider B5, for which the equilibrium dissociation constant (Kd) in experiment [1] turned out to be 0.19 µM; in experiment [2], 10 µM; in experiment [3], 7.7 µM. In addition, the “Relative FcgRIa-binding Activity” value in experiment [4] was 0.002. Also, the “Relative FcgRIIaR-binding Activity” value in experiment [5] stood at 0.11. The “Relative FcgRIIaH-binding Activity” value in experiment [6] was found to be 0.003. In addition, the “Relative FcgRIIb-binding Activity” value in experiment [7] came out at 0.3. For the same molecule, the “Relative FcgRIIIaV-binding Activity” value in experiment [8] is 0.004.

B6: IL6R-P753/IL6R-L (antibody, human IgG1, kappa)
heavy: QVQLQESGPGLVKPSETLSLTCAVSGHSISHDHAWSWVRQPPGEGLEWIGFISYSGITNYNPSLQGRVTISRDNSKNTLYLQMNSLRAEDTAVYYCARSLARTTAMDYWGEGTLVTVSSASTKGPSVFPLAPSSKSTSGGTAALGCLVKDYFPEPVTVSWNSGALTSGVHTFPAVLQSSGLYSLSSVVTVPSSSLGTQTYICNVNHKPSNTKVDKKVEPKSCDKTHTCPPCPAPELFGQDSVMLFPPKPKDTLMISRTPEVTCVVVDVSPEDPEVKFNWYVDGVEVHNAKTKPREEQENSTYRVVSVLTVLHQDWLNGKEYKCEVHNKALPAPIEKTISKAKGQPREPQVYTLPPSRDELTKNQVSLTCLVKGFYPSDIAVEWESNGQPENNYKTTPPVLDSDGSFFLYSKLTVDKSRWQQGNVFSCSVMHEALHNHYTQKSLSLSP
light: not shown
On to B6, for which the equilibrium dissociation constant (Kd) in experiment [1] came to 0.11 µM; in experiment [2], 18 µM; in experiment [3] it was 2.8 µM. In experiment [4], the “Relative FcgRIa-binding Activity” value is 0.003. The “Relative FcgRIIaR-binding Activity” value in experiment [5] is 0.06. Moreover, the “Relative FcgRIIaH-binding Activity” value in experiment [6] was 0.014. In experiment [7], the “Relative FcgRIIb-binding Activity” value amounted to 0.8. Further, the “Relative FcgRIIIaV-binding Activity” value in experiment [8] stood at 0.007.

B7: IL6R-P752/IL6R-L (antibody, human IgG1, kappa)
heavy: QVQLQESGPGLVKPSETLSLTCAVSGHSISHDHAWSWVRQPPGEGLEWIGFISYSGITNYNPSLQGRVTISRDNSKNTLYLQMNSLRAEDTAVYYCARSLARTTAMDYWGEGTLVTVSSASTKGPSVFPLAPSSKSTSGGTAALGCLVKDYFPEPVTVSWNSGALTSGVHTFPAVLQSSGLYSLSSVVTVPSSSLGTQTYICNVNHKPSNTKVDKKVEPKSCDKTHTCPPCPAPELFGQDSVMLFPPKPKDTLMISRTPEVTCVVVDVSPEDPEVKFNWYVDGVEVHNAKTKPREEQENSTYRVVSVLTVLHQDWLNGKEYKCAVHNKALPAPIEKTISKAKGQPREPQVYTLPPSRDELTKNQVSLTCLVKGFYPSDIAVEWESNGQPENNYKTTPPVLDSDGSFFLYSKLTVDKSRWQQGNVFSCSVMHEALHNHYTQKSLSLSP
light: not shown
For the molecule B7, the values for the equilibrium dissociation constant (Kd) in experiment [1], in experiment [2] and in experiment [3] were 0.15 µM, 41 µM and 4.2 µM, respectively. In addition, the “Relative FcgRIa-binding Activity” value in experiment [4] came out at 0.002. Moreover, the “Relative FcgRIIaR-binding Activity” value in experiment [5] is 0.03. Also, the “Relative FcgRIIaH-binding Activity” value in experiment [6] was found to be 0.013. For the same molecule, the “Relative FcgRIIb-binding Activity” value in experiment [7] amounted to 0.5. In addition, the “Relative FcgRIIIaV-binding Activity” value in experiment [8] is 0.006.
